The values that follow come from the supplement of paper PMC7877785.

± gives the uncertainty stated by the source.

The series in a line: self-splicing fitness, log relative to wild type (ln ratio); higher = more splicing; Tetrahymena group I intron in knt gene, E. coli kanamycin selection, DiMSum; sequences stand for … in CUCUCU…GGAGGGAAAAGUUAUCAGGCAUGCACCUGGUAGCUAGUCUUUAAACCAAUAGAUUGCAUCGGUUUAAAAGGCAAGACCGUCAAAUUGCGGGAAAGGGGUCAACAGCCGUUCAGUACCAAGUCUCAGGGGAAACUUUGAGAUGGCCUUGCAAAGGGUAUGGUAAUAAGCUGACGGACAUGGUCCUAACCACGCAGCCAAGUCCUAAGUCAACAGAUCUUCUGUUGAUAUGGAUGCAGUUCACAGACUAAAUGUCGGUCGGGGAAGAUGUAUUCUUCUCAUAAGAUAUAGUCGGACCUCUCCUUAAUGGGAGCUAGCGGAUGAAGUGAUGCAACACUGGAGCCGCUGGGAACUAAUUUGUAUGCGAAAGUAUAUUGAUUAGUUUUGGAGUACUCGUGGUCG
In outline: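 Colonies from six replicate transformations of E. coli BL21(DE3) were pooled and amplicon-sequenced on an Illumina HiSeq 2500. The library placed an intron with all eight P1ex-region nucleotides randomised inside the knt kanamycin-resistance gene on pET-22b(+), and cells grew overnight at 37°C or 30°C on LB agar with or without 25 μg/mL kanamycin (plus 100 μg/mL carbenicillin, 50 μM IPTG, 0.2% rhamnose). Fitness is the DiMSum error-weighted combination of wild-type-normalised replicate fold changes, kanamycin versus none.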

With ACUCAGCAAUAUUACGGAAC, the “self-splicing fitness (ln)” value is -1.64 ± 0.12 (30 °C) and -1.76 ± 0.19 (37 °C). For ACUCAGCAAUAUUACGGAGG, the “self-splicing fitness (ln)” value is -2.28 ± 0.13 (30 °C) and -1.35 ± 0.17 (37 °C).

With ACUCAGCAAUAUUACGUAAA, the “self-splicing fitness (ln)” value (30 °C) is -1.36 ± 0.069 and the “self-splicing fitness (ln)” value (37 °C) was -0.79 ± 0.09.

ACUCAGCAAUAUUACGUAAC: the “self-splicing fitness (ln)” value was -2.79 ± 0.14 (30 °C) and -1.2 ± 0.16 (37 °C). Regarding ACUCAGCAAUAUUACGUACA, the “self-splicing fitness (ln)” value runs as follows: (30 °C) -1.74 ± 0.1; (37 °C) -0.876 ± 0.1.

For the sequence ACUCAGCAAUAUUACGUCAU, the “self-splicing fitness (ln)” value reads like this: (30 °C) -1.29 ± 0.068; (37 °C) -0.61 ± 0.088. For ACUCAGCAAUAUUACGUCCU the same measures were -1.18 ± 0.094 and 0.185 ± 0.11.

With ACUCAGCAAUAUUACGUUUU, the “self-splicing fitness (ln)” value reads like this: (30 °C) -2.1 ± 0.048; (37 °C) -0.817 ± 0.061. With ACUGAGCAAUAUUACGACAG, the “self-splicing fitness (ln)” value reads like this: (30 °C) -0.882 ± 0.091; (37 °C) -0.105 ± 0.12. In the case of ACUGAGCAAUAUUACGACGG, the “self-splicing fitness (ln)” value reads like this: (30 °C) -1.08 ± 0.1; (37 °C) -0.161 ± 0.13. For ACUGAGCAAUAUUACGAGUA, the “self-splicing fitness (ln)” value (37 °C) was -1.6 ± 0.2. For the sequence ACUGAGCAAUAUUACGCAAC, the “self-splicing fitness (ln)” value (30 °C) was -3.87 ± 0.31. Consider ACUGAGCAAUAUUACGCAUG, for which the “self-splicing fitness (ln)” value was -1.95 ± 0.14 (30 °C) and -2.23 ± 0.16 (37 °C).

As for ACUGAGCAAUAUUACGCCUC, the “self-splicing fitness (ln)” value (30 °C) was -2.32 ± 0.31. Consider ACUGAGCAAUAUUACGCGUC, for which the “self-splicing fitness (ln)” value was -4.21 ± 0.29 (30 °C) and -2.35 ± 0.21 (37 °C). Consider ACUGAGCAAUAUUACGCUGA, for which the “self-splicing fitness (ln)” value reads like this: (30 °C) -2.19 ± 0.47; (37 °C) -1.2 ± 0.34. As to ACUGAGCAAUAUUACGCUUC, the “self-splicing fitness (ln)” value is -3.57 ± 0.24 (30 °C) and -3.1 ± 0.28 (37 °C). For the sequence ACUGAGCAAUAUUACGGAUG, the “self-splicing fitness (ln)” value was -2.58 ± 0.12 (30 °C) and -1.67 ± 0.14 (37 °C). As to ACUGAGCAAUAUUACGGAUU, the “self-splicing fitness (ln)” value is, setting by setting: (30 °C) -3.91 ± 0.27; (37 °C) -1.59 ± 0.16.

Consider ACUGAGCAAUAUUACGGCGA, for which the “self-splicing fitness (ln)” value runs as follows: (30 °C) -1.87 ± 0.099; (37 °C) -1.19 ± 0.11. For ACUGAGCAAUAUUACGGCUU, the “self-splicing fitness (ln)” value is, setting by setting: (30 °C) -3.22 ± 0.21; (37 °C) -3.27 ± 0.4.

Turning to ACUGAGCAAUAUUACGGGGC, the “self-splicing fitness (ln)” value was -4.03 ± 0.33 (30 °C) and -1.57 ± 0.22 (37 °C).

ACUGAGCAAUAUUACGUAUG: the “self-splicing fitness (ln)” value (30 °C) is -3.4 ± 0.15 and the “self-splicing fitness (ln)” value (37 °C) was -1.08 ± 0.14. The like results for ACUGAGCAAUAUUACGUCCA were, in that order, -3.1 ± 0.36 and -2 ± 0.4. As to ACUGAGCAAUAUUACGUCCG, the “self-splicing fitness (ln)” value reads like this: (30 °C) -2.79 ± 0.17; (37 °C) -1.58 ± 0.17.

Take ACUGAGCAAUAUUACGUGGA: the “self-splicing fitness (ln)” value is -2.94 ± 0.2 (30 °C) and -2.88 ± 0.2 (37 °C). For the sequence ACUGAGCAAUAUUACGUUCA, the “self-splicing fitness (ln)” value is, setting by setting: (30 °C) -3.87 ± 0.28; (37 °C) -1.55 ± 0.2. Take ACUGAGCAAUAUUACGUUGA: the “self-splicing fitness (ln)” value (30 °C) was -3.25 ± 0.15 and the “self-splicing fitness (ln)” value (37 °C) was -2.48 ± 0.15. For ACUGAGCAAUAUUACGUUUG, the “self-splicing fitness (ln)” value (30 °C) was -3.97 ± 0.21 and the “self-splicing fitness (ln)” value (37 °C) is -2.53 ± 0.18. With ACUGAGCAAUAUUACGUUUU, the “self-splicing fitness (ln)” value reads like this: (30 °C) -4.25 ± 0.26; (37 °C) -2.07 ± 0.18. Regarding ACUUAGCAAUAUUACGACUA, the “self-splicing fitness (ln)” value is -1.81 ± 0.17 (30 °C) and -0.513 ± 0.14 (37 °C). Regarding ACUUAGCAAUAUUACGACUG, the “self-splicing fitness (ln)” value was -1.53 ± 0.099 (30 °C) and -0.694 ± 0.16 (37 °C). Take ACUUAGCAAUAUUACGAGUG: the “self-splicing fitness (ln)” value by setting is: (30 °C) -1.17 ± 0.12; (37 °C) -1.58 ± 0.13. As for ACUUAGCAAUAUUACGAUCC, the “self-splicing fitness (ln)” value was -1.9 ± 0.15 (30 °C) and -0.595 ± 0.2 (37 °C). Consider ACUUAGCAAUAUUACGCCAA, for which the “self-splicing fitness (ln)” value was -3.19 ± 0.29 (30 °C) and -2.17 ± 0.28 (37 °C).

For ACUUAGCAAUAUUACGCCCA, the “self-splicing fitness (ln)” value runs as follows: (30 °C) -1.29 ± 0.21; (37 °C) -0.528 ± 0.22.

As for ACUUAGCAAUAUUACGCUCG, the “self-splicing fitness (ln)” value (30 °C) was -0.969 ± 0.1 and the “self-splicing fitness (ln)” value (37 °C) was -0.233 ± 0.16. For ACUUAGCAAUAUUACGCUUU the same measures were -1.69 ± 0.088 and -1.42 ± 0.14. As for ACUUAGCAAUAUUACGGAAC, the “self-splicing fitness (ln)” value is -3.24 ± 0.19 (30 °C) and -1.07 ± 0.34 (37 °C). With ACUUAGCAAUAUUACGGCGA, the “self-splicing fitness (ln)” value (30 °C) is -1.21 ± 0.21 and the “self-splicing fitness (ln)” value (37 °C) was -0.343 ± 0.21. Take ACUUAGCAAUAUUACGGCUC: the “self-splicing fitness (ln)” value reads like this: (30 °C) -0.897 ± 0.061; (37 °C) -0.503 ± 0.077. Regarding ACUUAGCAAUAUUACGGGCG, the “self-splicing fitness (ln)” value is -0.769 ± 0.078 (30 °C) and -0.483 ± 0.085 (37 °C). The like results for ACUUAGCAAUAUUACGGGUC were, in that order, -3.35 ± 0.13 and -3.27 ± 0.2. For ACUUAGCAAUAUUACGGGUG, the “self-splicing fitness (ln)” value was -1.14 ± 0.059 (30 °C) and -0.754 ± 0.085 (37 °C). Regarding ACUUAGCAAUAUUACGGUCG, the “self-splicing fitness (ln)” value reads like this: (30 °C) -2.52 ± 0.17; (37 °C) -1.35 ± 0.2.

For ACUUAGCAAUAUUACGUCCG, the “self-splicing fitness (ln)” value reads like this: (30 °C) -2.09 ± 0.2; (37 °C) -0.774 ± 0.25.

Turning to ACUUAGCAAUAUUACGUCUA, the “self-splicing fitness (ln)” value is -1.67 ± 0.16 (30 °C) and -1.83 ± 0.17 (37 °C). Consider ACUUAGCAAUAUUACGUGUG, for which the “self-splicing fitness (ln)” value is, setting by setting: (30 °C) -2.2 ± 0.09; (37 °C) -1.06 ± 0.087. For the sequence ACUUAGCAAUAUUACGUUGC, the “self-splicing fitness (ln)” value (30 °C) is -3.9 ± 0.38 and the “self-splicing fitness (ln)” value (37 °C) was -1.8 ± 0.26. Turning to ACUUAGCAAUAUUACGUUGU, the “self-splicing fitness (ln)” value (30 °C) is -2.9 ± 0.15 and the “self-splicing fitness (ln)” value (37 °C) is -2.12 ± 0.15. For the sequence AGAAAGCAAUAUUACGAAGA, the “self-splicing fitness (ln)” value reads like this: (30 °C) -2.95 ± 0.24; (37 °C) -2.27 ± 0.33. Turning to AGAAAGCAAUAUUACGACGG, the “self-splicing fitness (ln)” value was -2.82 ± 0.24 (30 °C) and -0.965 ± 0.29 (37 °C). In the case of AGAAAGCAAUAUUACGAGCG, the “self-splicing fitness (ln)” value (30 °C) is -1.21 ± 0.095 and the “self-splicing fitness (ln)” value (37 °C) was -0.574 ± 0.13. Take AGAAAGCAAUAUUACGAUAA: the “self-splicing fitness (ln)” value by setting is: (30 °C) -1.21 ± 0.054; (37 °C) -0.539 ± 0.073. AGAAAGCAAUAUUACGAUCG: the “self-splicing fitness (ln)” value reads like this: (30 °C) -0.0642 ± 0.072; (37 °C) -0.026 ± 0.091. For the sequence AGAAAGCAAUAUUACGAUUA, the “self-splicing fitness (ln)” value reads like this: (30 °C) -0.175 ± 0.12; (37 °C) -0.183 ± 0.15.

As to AGAAAGCAAUAUUACGCACG, the “self-splicing fitness (ln)” value is, setting by setting: (30 °C) -0.407 ± 0.18; (37 °C) -0.88 ± 0.22.

As for AGAAAGCAAUAUUACGCAGC, the “self-splicing fitness (ln)” value (30 °C) is -2.92 ± 0.2 and the “self-splicing fitness (ln)” value (37 °C) is -2.33 ± 0.2. In the case of AGAAAGCAAUAUUACGCAUA, the “self-splicing fitness (ln)” value is, setting by setting: (30 °C) -2.44 ± 0.16; (37 °C) -1.19 ± 0.16. Regarding AGAAAGCAAUAUUACGCCAG, the “self-splicing fitness (ln)” value is -2.29 ± 0.2 (30 °C) and -0.433 ± 0.17 (37 °C).
